How the values were obtained:
[1] = biological target: 6His–PilC (Streptococcus sanguinis 2908); assay: ITC; MicroCal ITC200; average ± SD of three (mutants: 2 to 3) independent experiments
[2] = biological target: 6His–PilA (Streptococcus sanguinis 2908); assay: SEC-MALS; ÄKTA Prime, S200 10/300 GL column, Wyatt MALS detector; 6His–PilA and 6His–PilC separately and after mixing equimolar amounts
[3] = biological target: 6His–PilC (Streptococcus sanguinis 2908); assay: as above
PilC [4] = biological target: T1, PilC (Streptococcus sanguinis, UniProt A0A0B7GRV8); assay: ITC (three independent experiments); supported by glycan microarray; assay type: binding
T1 construct: 6His–PilCΔpilin (lacking the pilin moiety; Ig-like and lectin modules), strain 2908

6His–PilC = assay: ITC; details: parent: est. 1.0; read off a plot
PilC [5] = biological target: T2, PilC (Streptococcus sanguinis, UniProt A0A0B7GRV8, K358A); assay: ITC of mutant, KD ratio to WT (reduced affinity); assay type: binding
T2 construct: PilCΔpilin (lacking the pilin moiety), strain 2908
T2 sequence (A0A0B7GRV8 122-486 K358A): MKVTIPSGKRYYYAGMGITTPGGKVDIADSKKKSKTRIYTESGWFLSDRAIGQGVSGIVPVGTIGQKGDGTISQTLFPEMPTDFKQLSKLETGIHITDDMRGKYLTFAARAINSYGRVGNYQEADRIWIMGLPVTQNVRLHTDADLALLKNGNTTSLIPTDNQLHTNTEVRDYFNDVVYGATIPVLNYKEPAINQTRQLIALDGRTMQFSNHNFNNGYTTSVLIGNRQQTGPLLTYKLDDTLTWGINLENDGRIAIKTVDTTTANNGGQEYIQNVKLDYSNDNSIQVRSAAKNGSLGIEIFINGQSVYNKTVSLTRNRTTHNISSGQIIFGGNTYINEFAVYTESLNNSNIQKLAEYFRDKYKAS

6His–PilA (domain or fragment)
Kd [1]: 0.0238 µM
stoichiometry N [2]: 2
stoichiometry N [3]: 1

PilA_(T87A) (from UniProt A0A0B7GNW3 33-164) (domain or fragment)
percent of the wild-type (WT) binding (KD ratio to the WT) [1]: 38.3%

CC(=O)N[C@H]1[C@H]([C@H](O)[C@H](O)CO)O[C@@](O[C@H]2[C@@H](O)[C@@H](CO)O[C@@H](O[C@H]3[C@H](O)[C@@H](NC(C)=O)C(O)O[C@@H]3CO)[C@@H]2O)(C(=O)O)C[C@@H]1O (stereo partly drawn) [3′-SLN, 3′-sialyl-N-acetyllactosamine]
Kd (PilC [4]): 144 ± 7.36 µM

6His–PilA A68S
ratio to parent (6His–PilC): 0.87

6His–PilA K85A
ratio to parent (6His–PilC): 0.98

CC(=O)N[C@H]1[C@H]([C@H](O)[C@H](O)CO)O[C@@](O[C@H]2[C@@H](O)[C@@H](CO)O[C@@H](O[C@H]3[C@H](O)[C@@H](O)C(O)O[C@@H]3CO)[C@@H]2O)(C(=O)O)C[C@@H]1O (stereo partly drawn) [3′-SL, 3′-sialyllactose]
Kd (PilC [4]): 79.1 ± 0.36 µM
% of WT binding (PilC [5]): 39.3 ± 1.4 % of WT binding
